The values below come from patent publication US20090136936A1 (RESEARCH DEVELOPMENT FOUNDATION, published 2009).

B1: Recombinant human FcγRI/CD64, extracellular domain, glycosylated (receptor, UniProt P12314 16-292, looked up)
chain: QVDTTKAVITLQPPWVSVFQEETVTLHCEVLHLPGSSSTQWFLNGTATQTSTPSYRITSASVNDSGEYRCQRGLSGRSDPIQLEIHRGWLLLQVSSRVFTEGEPLALRCHAWKDKLVYNVLYYRNGKAFKFFHWNSNLTILKTNISHNGTYHCSGMGKHRYTSAGISVTVKELFPAPVLNASVTSPLLEGNLVTLSCETKLLLQRPGLQLYFSFYMGSKTLRGRNTSSEYQILTARREDSGLYWCEAATEDGNVLKRSPELELQVLGLQLPTPVWFH
notes: extracellular domain; also called FcγRIa; FcγRIa-FITC
B2: dsbA-FcγRIIa-His (receptor, Homo sapiens, UniProt P12318 34-217, looked up)
receptor chain: QAAAPPKAVLKLEPPWINVLQEDSVTLTCQGARSPESDSIQWFHNGNLIPTHTQPSYRFKANNNDSGEYTCQTGQTSLSDPVHLTVLSEWLVLQTPHLEFQEGETIMLRCHSWKDKPLVKVTFFQNGKSQKFSHLDPTFSIPQANHSHSGDYHCTGNIGYTLFSSKPVTITVQVPSMGSSSPMG
notes: soluble mature form, exported to the E. coli periplasm by the dsbA signal; also called product of pTrcdsbAHis-FcγRIIa
B3: Fc12 (N361D, E382V, M428I), aglycosylated Fc mutant (other)
chain: DKTHTCPPCPAPELLGGPSVFLFPPKPKDTLMISRTPEVTCVVVDVSHEDPEVKFNWYVDGVEVHNAKTKPREEQYNSTYRVVSVLTVLHQDWLNGKEYKCKVSNKALPAPIEKTISKAKGQPREPQVYTLPPSRDELTKDQVSLTCLVKGFYPSDIAVEWVSNGQPENNYKTTPPVLDSDGSFFLYSKLTVDKSRWQQGNVFSCSVIHEALHNHYTQKSLSLSPGK
B4: Fc102 (other)
Fc chain: B3 chain
B5: Fc152 (H224R, E382V, S426T, M428S, E430P), aglycosylated Fc mutant (other)
chain: B3 chain with H4R, D141N, S206T, I208S, E210P
B6: Fc23 (H310Y, K322R, T350A, E382V, S426T, S442P), aglycosylated Fc mutant (other)
chain: B3 chain with H90Y, K102R, T130A, D141N, S206T, I208M, S222P
B7: Fc114 (N361S, E382V, M428I), aglycosylated Fc mutant (other)
chain: B3 chain with D141S
B8: Fc147 (other)
Fc chain: B3 chain with C9R, D141N
B9: Fc106 (E382T, N384D, M428I), aglycosylated Fc mutant (other)
chain: B3 chain with D141N, V162T, N164D
B10: Fc151 (E382V, S426I, M428L, E430S), aglycosylated Fc mutant (other)
chain: B3 chain with D141N, S206I, I208L, E210S
B11: Fc49 (C229R, E382V, M428I), aglycosylated Fc mutant (other)
chain: B3 chain with C9R, D141N
notes: also called aglycosylated-Fc49
B12: Fc20 (N361D, F372L, E382V, M428I), aglycosylated Fc mutant (other)
chain: B3 chain with F152L
B13: Fc143 (P238S, E382V, S426V, M428L, E430H), aglycosylated Fc mutant (other)
chain: B3 chain with P18S, D141N, S206V, I208L, E210H
B14: Fc149 (E380D, E382V, N384R, S426V, M428L, E430D), aglycosylated Fc mutant (other)
chain: B3 chain with D141N, E160D, N164R, S206V, I208L, E210D
B15: Fc100 (other)
Fc chain: B3 chain with D141N, E160T, V162M, N164E, I208M
B16: Fc217 (LGDGSPCKAN insertion between N297 and S298), aglycosylated Fc mutant (other)
chain: DKTHTCPPCPAPELLGGPSVFLFPPKPKDTLMISRTPEVTCVVVDVSHEDPEVKFNWYVDGVEVHNAKTKPREEQYNLGDGSPCKANSTYRVVSVLTVLHQDWLNGKEYKCKVSNKALPAPIEKTISKAKGQPREPQVYTLPPSRDELTKNQVSLTCLVKGFYPSDIAVEWESNGQPENNYKTTPPVLDSDGSFFLYSKLTVDKSRWQQGNVFSCSVMHEALHNHYTQKSLSLSPGK
B17: Fc209 (F241L, K326E, EVPLVWMWVS insertion between N297 and S298), aglycosylated Fc mutant (other)
chain: DKTHTCPPCPAPELLGGPSVLLFPPKPKDTLMISRTPEVTCVVVDVSHEDPEVKFNWYVDGVEVHNAKTKPREEQYNEVPLVWMWVSSTYRVVSVLTVLHQDWLNGKEYKCKVSNEALPAPIEKTISKAKGQPREPQVYTLPPSRDELTKNQVSLTCLVKGFYPSDIAVEWESNGQPENNYKTTPPVLDSDGSFFLYSKLTVDKSRWQQGNVFSCSVMHEALHNHYTQKSLSLSPGK
B18: Fc216 (WQVFNKYTKP insertion between N297 and S298), aglycosylated Fc mutant (other)
chain: B16 chain with L78W, G79Q, D80V, G81F, S82N, P83K, C84Y, K85T, A86K, N87P
B19: Fc207 (QLISHYRHLT insertion between N297 and S298), aglycosylated Fc mutant (other)
chain: B16 chain with L78Q, G79L, D80I, G81S, S82H, P83Y, C84R, K85H, A86L, N87T

For assay [1], the target named is T1, BSA (Bos taurus, UniProt P02769).
T1 construct: also called BSA coated
In words: fluorescence ELISA: BSA coated wells, FITC labeled FcγRIa serially diluted 4-fold [panel b]. On the technique in general: ELISA stands for enzyme-linked immunosorbent assay.

Assay [2] has as its target Protein A-FITC (Staphylococcus aureus, UniProt P38507 37-477). Briefly: flow cytometry of spheroplasts, PMT 700V, TB with 0.5M trehalose, labeling with Protein A-FITC [panel a].
In assay [3] the target is B1. In words: flow cytometry of spheroplasts displaying the Fc, labelled with FcγRIa-FITC [panel b].
In assay [4] the target is B1. Briefly: flow cytometry of spheroplasts displaying the Fc clone, labelled with FcγRIa-FITC; the value is repeated on D00019 and D00020.
The target in assay [5] is B1. Briefly: SPR (BIAcore 3000), FcγRIa immobilized on CM-5. (SPR reads the build-up and loss of mass on a sensor chip optically.)
Assay [6] addresses T2, extracellular domain of aglycosylated FcγRIIIa purified from E. coli inclusion bodies, FITC-labeled (human, UniProt P08637 17-208).
T2 construct: extracellular domain; also called FcγRIIIa-FITC
Briefly: flow cytometry of spheroplasts displaying the Fc, labelled with FcγRIIIa-FITC. (A flow cytometer gives signals particle by particle.)

Positions count from the first letter of the chain named. Numbers in names are those of the source.

T2 sequence (P08637 17-208): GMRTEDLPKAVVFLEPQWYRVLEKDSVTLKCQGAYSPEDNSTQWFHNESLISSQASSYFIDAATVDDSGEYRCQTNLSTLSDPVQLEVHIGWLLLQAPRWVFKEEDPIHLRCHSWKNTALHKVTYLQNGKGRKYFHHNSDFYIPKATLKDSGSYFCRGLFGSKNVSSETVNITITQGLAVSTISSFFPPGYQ
T1 sequence (P02769 25-607 limits assumed): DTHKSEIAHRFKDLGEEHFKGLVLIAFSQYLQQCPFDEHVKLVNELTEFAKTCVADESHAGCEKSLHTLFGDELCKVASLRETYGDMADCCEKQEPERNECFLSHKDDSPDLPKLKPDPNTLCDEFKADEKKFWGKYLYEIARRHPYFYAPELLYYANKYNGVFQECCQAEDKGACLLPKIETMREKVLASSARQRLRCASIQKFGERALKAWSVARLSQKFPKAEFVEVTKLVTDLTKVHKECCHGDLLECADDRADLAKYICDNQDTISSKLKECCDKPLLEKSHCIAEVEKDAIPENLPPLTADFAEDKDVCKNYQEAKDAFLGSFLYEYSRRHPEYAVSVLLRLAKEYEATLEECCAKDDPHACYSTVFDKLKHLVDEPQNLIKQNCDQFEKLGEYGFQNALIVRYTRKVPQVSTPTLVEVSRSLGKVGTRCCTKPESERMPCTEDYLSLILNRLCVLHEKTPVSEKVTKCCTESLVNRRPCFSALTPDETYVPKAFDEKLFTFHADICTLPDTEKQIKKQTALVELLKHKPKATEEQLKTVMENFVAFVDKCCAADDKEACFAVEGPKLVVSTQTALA

With B1, the binding result in assay [1] is listed as “no binding”.
Take B2: the binding result in assay [2] was “no binding”.
In the case of B3, the “M (mean fluorescence intensity)” value in assay [3] amounted to 307.
Regarding B4, the FACS mean value in assay [4] came out at 374.
On the same count and under the same terms, for B5 the value was 173.
Regarding B6, the “M (mean fluorescence intensity)” value in assay [3] worked out at 335.
For B7, in assay [4], the FACS mean value was found to be 370.
Still for that read-out and setting: for B8 the value was 464; for B9, 269; for B10, 326.
In general, Kd refers to the constant that tells how readily two partners part at equilibrium. As a reminder, the koff is a measure of how fast the partners let go of each other. What is called kon is the second-order rate constant of association. Turning to B11, the “M (mean fluorescence intensity)” value in assay [3] is 409. Besides, in assay [5], the Kd came to 92 nM, the koff was 0.0023 s⁻¹ and the on-rate constant (kon) was 25000 M⁻¹ s⁻¹.
Turning to B12, the “M (mean fluorescence intensity)” value in assay [3] turned out to be 295.
Turning to B13, in assay [4], the FACS mean value was 211.
The same measure, in the same setting: to B14 belongs 140.
On the same count and under the same terms, to B15 belongs 138.
For the molecule B16, in assay [6], the “M (mean fluorescence intensity)” value was found to be 500.
On the same count and under the same terms, for B17 the value was 291; for B18, 496.
Still for that read-out and setting: for B19 the value was 143.
